From publication PMC3499431

Target: 3xFlag20Q-htt (full-length humanized normal huntingtin, chimeric mouse/human exon 1 with a 20Q stretch and the human PRR, with a 3xFlag N-terminal epitope tag) (mouse | human)
Experiment: co-IP; 500 ug whole brain cytoplasmic extract (mice 13, 16 or 27 months old) with 5-6 ug FLAG M2 or 1C2 antibody overnight at 4°C, captured on Protein G-agarose beads for 3 hr; same extraction buffer; eluted by boiling in SDS sample buffer; bound and non-bound fractions blotted with 1C2 and MAB2166; control without antibody

percent of soluble full-length mutant htt associated with 3xFlag20Q-htt: < 2.5%
Substance: 140Q-htt (soluble full-length mutant huntingtin of the CAG140 knock-in allele, chimeric mouse/human exon 1 with a 140Q stretch and the human PRR) (natural protein)
